Patent publication US20230125550A1 (ARCELLX, published 2023)

target: HER2 (Homo sapiens (Human), UniProt P04626 23-652); test: phage ELISA, A450 target/A450 IgG1-Fc
In short: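 Individual phagemid colonies picked from panning output were rescued in 96-well format using VCSM13 helper phage. Plates received 1.3 microg/ml goat anti-human IgG1-Fc antibody, followed by 5 nM recombinant human target or IgG1-Fc, and then 50 microl of phage diluted 5× in ELISA blocking buffer. An HRP-conjugated anti-M13 antibody detected binding at 450 nm. For each clone, the ELISA ratio is the absorbance with target divided by that with IgG1-Fc, averaged over every screened well containing the clone.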

Row | Binder | ELISA_avg
1 | SEQ ID NO 911 (designed binder) MGSWHEFRWRLFAIWQRLHALGGSEAELAAFEKEIAAFESELQAYKGKGNPEVEWLRLDAALIRVMLQAYRHN | 10 ratio
2 | SEQ ID NO 920 (designed binder) MGSWYEFRWRLHAIWLRLGALGGSEAELAAFEKEIAAFESELQAYKGKGNPEVEWLRQDAAQIRYILQAYRHN | 7.18 ratio
3 | SEQ ID NO 934 (designed binder) MGSWSEFWFRLHAILYRLQALGGSEAELAAFEKEIAAFESELQAYKGKGNPEVETLRDAAAEIRVALQAYRHN | 14.8 ratio
4 | SEQ ID NO 926 (designed binder) MGSWWEFKVRLSAIQYRLYALGGSEAELAAFEKEIAAFESELQAYKGKGNPEVEALREQAALIRTILQAYRHN | 5.17 ratio
5 | SEQ ID NO 929 (designed binder) MGSWWEFKIRLYAIEYRLNALGGSEAELAAFEKEIAAFESELQAYKGKGNPEVEALRAKAAQIRYNLQAYRHN | 4.49 ratio
6 | SEQ ID NO 949 (designed binder) MGSWWEFNVRLSAIRYRLLALGGSEAELAAFEKEIAAFESELQAYKGKGNPEVEDLRASAAQIRAMLQAYRHN | 6.73 ratio
7 | SEQ ID NO 927 (designed binder) MGSWWEFHIRLHAINYRLAALGGSEAELAAFEKEIAAFESELQAYKGKGNPEVEALRELAAKIRGDLQAYRHN | 11.9 ratio
8 | SEQ ID NO 928 (designed binder) MGSWWEFQVRLRAIQYRLNALGGSEAELAAFEKEIAAFESELQAYKGKGNPEVEYLRGLAAQIRFDLQAYRHN | 14.4 ratio
9 | SEQ ID NO 935 (designed binder) MGSWIEFWVRLNAILYRLYALGGSEAELAAFEKEIAAFESELQAYKGKGNPEVEALRDSAAEIRRWLQAYRHN | 3.91 ratio
10 | SEQ ID NO 933 (designed binder) MGSWWEFKVRLRAIEYRLSALGGSEAELAAFEKEIAAFESELQAYKGKGNPEVEELRVLAASIRIHLQAYRHN | 10.1 ratio
11 | SEQ ID NO 950 (designed binder) MGSWWEFNMRLSAIKYRLYALGGSEAELAAFEKEIAAFESELQAYKGKGNPEVEILRRLAADIRERLQAYRHN | 3.08 ratio
12 | SEQ ID NO 930 (designed binder) MGSWFEFNIRLHAIEYRLKALGGSEAELAAFEKEIAAFESELQAYKGKGNPEVEELRNYAASIRKLLQAYRHN | 7.86 ratio
13 | SEQ ID NO 931 (designed binder) MGSWFEFEIRLRAIEYRLSALGGSEAELAAFEKEIAAFESELQAYKGKGNPEVEKLRELAAEIRYALQAYRHN | 7.75 ratio
14 | SEQ ID NO 944 (designed binder) MGSWWEFNIRLHAIDYRLKALGGSEAELAAFEKEIAAFESELQAYKGKGNPEVELLREKAAQIRAQLQAYRHN | 9.75 ratio
15 | SEQ ID NO 945 (designed binder) MGSWWEFRVRLEAIDYRLKALGGSEAELAAFEKEIAAFESELQAYKGKGNPEVEYLRMKAATIRAILQAYRHN | 6.82 ratio
16 | SEQ ID NO 932 (designed binder) MGSWFEFKIRLYAIQYRLSALGGSEAELAAFEKEIAAFESELQAYKGKGNPEVEELRNLAAEIRHSLQAYRHN | 13.1 ratio

Row | Binder | ELISA_avg
17 | SEQ ID NO 946 (designed binder) MGSWYEFDIRLEAIKYRLSALGGSEAELAAFEKEIAAFESELQAYKGKGNPEVEYLRKKAAVIRSMLQAYRHN | 5.35 ratio
18 | SEQ ID NO 948 (designed binder) MGSWWEFNVRLQAIKYRLSALGGSEAELAAFEKEIAAFESELQAYKGKGNPEVEDLRKTAAHIRWQLQAYRHN | 5.23 ratio
19 | SEQ ID NO 947 (designed binder) MGSWWEFRIRLEAIWYRLHALGGSEAELAAFEKEIAAFESELQAYKGKGNPEVEDLRIFAANIRSKLQAYRHN | 8.04 ratio
20 | SEQ ID NO 939 (designed binder) MGSWWEFHVRLRAIEYRLEALGGSEAELAAFEKEIAAFESELQAYKGKGNPEVEQLRLIAANIRHLLQAYRHN | 5.48 ratio
21 | SEQ ID NO 942 (designed binder) MGSWWEFQVRLAAIEYRLKALGGSEAELAAFEKEIAAFESELQAYKGKGNPEVENLRQLAAHIRSVLQAYRHN | 6.33 ratio
22 | SEQ ID NO 943 (designed binder) MGSWWEFQVRLSAIEYRLTALGGSEAELAAFEKEIAAFESELQAYKGKGNPEVEELRQKAARIRSLLQAYRHN | 9.61 ratio
23 | SEQ ID NO 940 (designed binder) MGSWWEFHVRLKAIEYRLLALGGSEAELAAFEKEIAAFESELQAYKGKGNPEVEDLRYIAANIRQLLQAYRHN | 4.56 ratio
24 | SEQ ID NO 922 (designed binder) MGSWWGFKVNLAWIKWKLEALGGSEAELAYFELWIANFEHSLQEYKGKGNPEVEALRKEAAAIRDELQAYRHN | 8.69 ratio
25 | SEQ ID NO 936 (designed binder) MGSWVEFWIRLNAIKYRLLALGGSEAELAAFEKEIAAFESELQAYKGKGNPEVEKLRQDAADIRELLQAYRHN | 10.6 ratio
26 | SEQ ID NO 938 (designed binder) MGSWWEFYLRLRAISYRLQALGGSEAELAAFEKEIAAFESELQAYKGKGNPEVEGLRQDAAEIRKLLQAYRHN | 5.1 ratio
27 | SEQ ID NO 937 (designed binder) MGSWTEFWWRLSAIVYRLNALGGSEAELAAFEKEIAAFESELQAYKGKGNPEVEELRDMAADIRSLLQAYRHN | 5.76 ratio
28 | SEQ ID NO 921 (designed binder) MGSWHEFLRRLLAIEMRLYALGGSEAELAAFEKEIAAFESELQAYKGKGNPEVEHLRVRAASIRQMLQAYRHN | 8.15 ratio
29 | SEQ ID NO 924 (designed binder) MGSWLVFKDELAGIKNYLEALGGSEAELATFEQDIAWFEQWLQNYKGKGNPEVEALRKEAAAIRDELQAYRHN | 3.28 ratio
30 | SEQ ID NO 923 (designed binder) MGSWVNFKTHLARIKVHLEALGGSEAELALFEHDIANFEQVLQQYKGKGNPEVEALRKEAAAIRDELQAYRHN | 7.91 ratio
31 | SEQ ID NO 925 (designed binder) MGSWKTFKIELAGIKLELEALGGSEAELAGFENAIAQFESSLQYYKGKGNPEVEALRKEAAAIRDELQAYRHN | 4.95 ratio
